Source: paper PMC5358978, “Nuclear export receptor CRM1 recognizes diverse conformations in nuclear export signals” (eLife, 2017)

What was measured:
^HsCRM1 = ^HsCRM1 (Homo sapiens, UniProt O14980); test: Differential bleaching, competition titration of MBP-NES to FITC-PKI^NES and CRM1 with excess RanGTP; type: binding
wild type ^HsCRM1 = test: Pull-down binding assay with immobilized GST-NESs; design: species or system human; settings: ~5 µg immobilized GST-NESs, 7.5 µM ^ScRanGTP, 2.5 µM CRM1, 200 µL
CRM1 = settings: ref Xu et al., 2012c, 2015; cited from earlier work
Description: What then are CRM1 groove features that selectively recognize the key NES features? Arrangement of hydrophobic pockets in the groove likely selects NESs with suitably placed Φ residues. Groove shape, tapering and most constricted at ^ScCRM1 Lys579 (^HsCRM1 Lys568), likely selects for NES helices that transition to strands or NES helices that end (Figure 3C). Is groove-constricting ^HsCRM1 Lys568 perhaps key for differentiating active from false positive NES sequences? We tested mutants ^HsCRM1(K568A) and ^HsCRM1(K568M) for interactions with three previously identified false positive NESs that ...

HeLa cells = test: In vivo NES activity assay, EYFP2-SV40^NLS-NES reporter, spinning disk confocal microscope; type: cell-based; settings: EYFP2-SV40^NLS-FMRP-1b^NES expressed in HeLa cells; 60X
Description: Figure 2. Structures of NESs with non-helical sequence patterns. (A–E) FMRP^NES (light orange), SMAD4^NES (salmon), HDAC^NES (slate), Pax^NES (pale cyan) and FMRP-1b^NES (deep teal) bound to the ^ScCRM1 groove. […] Average displacements of each Φ Cα in the eight NESs (including mDia2^NES, CDC7^NES, X11L2^NES in Figure 1) from the equivalent Φ Cα of PKI^NES(Ф0L) are 1.3 ± 0.6 (Φ4), 0.8 ± 0.5 (Φ3), 0.7 ± 0.4 (Φ2), 0.9 ± 0.3 (Φ1) and 1.8 ± 0.9 (Φ0) Å. DOI: http://dx.doi.org/10.7554/eLife.23961.012 Figure 2—figure supplement 1. Electron densities of the NES peptides. […] DOI: http://dx.doi.org/10.7554/eLife.23961.013 [drawing 7] Figure 2—figure supplement 2. Engineering class 1b NESs. (A) Sequences of class 1b NESs generated from PKI^NES and FMRP^NES. […] The reactions were extensively washed and visualized with SDS/PAGE and Coomassie staining. (B) Leptomycin B (LMB) sensitive nuclear export activity of FMRP-1b^NES was verified by expressing EYFP2-SV40^NLS-FMRP-1b^NES in HeLa cells and imaged with spinning disk confocal microscope (60X). DOI: http://dx.doi.org/10.7554/eLife.23961.014 [drawing 8]

[1] = MBP-NES competes with FITC-PKI^NES for CRM1, excess RanGTP, triplicate, brackets = 68.3% confidence interval

Row | Kd (^HsCRM1; [1]) | Substance | other results
1 | 1.5 µM | MBP-X11L2^NES: MBP fusion of the NES from beta-amyloid binding protein X11L2 | 
2 |  | 173KTLSEVEESISTLISQPN^190 [COMMD1^pep, False positive NES peptide from COMM domain-containing protein 1, class 3 match; GST fusion in pull-down] | Pull-down binding to wild type ^HsCRM1 (wild type ^HsCRM1): does not bind; CRM1 binding of false positive NESs that match NES consensus (CRM1): do not bind CRM1
3 | 0.67 µM | MBP-Pax^NES: MBP fusion of the NES of Paxillin | 
4 | 1.6 µM | MBP-HDAC5^NES: MBP fusion of the NES of Histone deacetylase 5 | 
5 |  | YLKEVDQLRALER [MBP-FMRP-1b^NES mutant] | CRM1 binding in words, differential bleaching competition (^HsCRM1; excess RanGTP): does not bind CRM1; Kd (^HsCRM1; triplicate competition titrations, brackets = 68.3% confidence level, U = undetermined, NB = not binding): 1700 µM
6 | 20 µM | MBP-CDC7^NES: MBP fusion of the NES of cell division cycle 7-related protein kinase | 
7 | 4.6 µM | MBP-SMAD4^NES: MBP fusion of the NES of Mothers against decapentaplegic homolog 4 protein | 
8 | 3 µM | GGS-YLKEVDQLRALERLQID [MBP-FMRP-1b^NES, Engineered class 1b NES, an alanine added to FMRP^NES; tested as MBP fusion and as EYFP2-SV40^NLS reporter] | Leptomycin B (LMB) sensitive nuclear export activity (HeLa cells): verified
9 | 2 µM | MBP-FMRP^NES: MBP fusion of the class 2 NES of fragile X mental retardation protein | 
